Measured values taken from patent publication US20200157187A1 (LOYOLA UNIVERSITY CHICAGO, published 2020).

Assays:
[1] = target: T1, active TGF-β1, recombinant (Ala279-Ser390) (UniProt P01137 279-390); assay: SPR, kinetic analysis on active TGF-β
T1 construct: range 279-390; The background describes the growth factor domain as a dimer; also called purified active TGF-β1

[2] = target: T1, active TGF-β1, recombinant …; assay: SPR, chip coated with active TGF-β, positive control antibody
[3] = target: T2, TGF-β2 (UniProt P61812 303-414); assay: ELISA on coated TGF-β isoforms
T2 sequence (looked up): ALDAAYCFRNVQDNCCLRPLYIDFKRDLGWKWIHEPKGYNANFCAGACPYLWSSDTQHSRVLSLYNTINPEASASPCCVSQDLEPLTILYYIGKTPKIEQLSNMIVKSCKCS

[4] = target: T3, TGF-β3 (UniProt P10600 301-412); assay: ELISA on coated TGF-β isoforms
T3 sequence (looked up): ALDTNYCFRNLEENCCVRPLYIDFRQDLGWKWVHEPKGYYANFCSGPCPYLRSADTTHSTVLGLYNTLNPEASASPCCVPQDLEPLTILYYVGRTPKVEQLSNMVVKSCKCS

[5] = target: T4, active TGF-β on the surface of human CD4+CD25+ Tregs (human, UniProt P01137 279-390, The active form is a disulfide-linked homodimer of the growth factor domain; one chain is given.); assay: confocal microscopy of human Tregs, detected with anti-rabbit Fab-AF488
T4 construct: also called surface TGF-β; surface active TGF-β
T4 sequence (P01137 279-390 limits assumed): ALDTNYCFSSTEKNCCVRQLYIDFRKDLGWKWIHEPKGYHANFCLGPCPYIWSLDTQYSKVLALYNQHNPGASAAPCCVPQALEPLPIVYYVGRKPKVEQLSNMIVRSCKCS
Experimental: FIGS. 5A and 5B represent functional characterization of 6Fc. FIG. 5A represents an effect of 6Fc on phosphorylation of SMAD2/3. […] As a control, WTFc was used (shown on the right panel). Phosphorylation of SMAD2,3 was assessed by flow cytometry (solid line). Dotted lines show isotype control staining. FIG. 5B represents confocal images of Tregs stained with the monobody-Ig fusion proteins. Purified human PBMC-derived Tregs were mixed with 6Fc or WTFc (40 μg/ml), followed by anti-rabbit Fab-AF488 (green) and Hoechst-33342 (blue) staining. Single-cell images were obtained using an LSM-510 confocal microscope (×40).

T1 sequence (P01137 279-390 limits assumed, form in doubt): as the sequence (P01137 279-390 limits assumed) above

B1: anti-TGF-β monoclonal antibody 1D11 (antibody, V domains shown)
VH: QVQLQQSGPELVRPGASVKLSCKASGYIFITYWMNWVKQRPGQGLEWIGQIFPASGSTNYNEMFEGKATLTVDTSSSTAYMQLSSLTSEDSAVYYCARGDGNYALDAMDYWGQGTSVTVSS
VL: DIVLTQSPASLAVSLGQRATISCRASESVDSYGNSFMHWYQQKSGQPPKLLIYLASNLESGVPARFSGSGSRTDFTLTIDPVEADDAATYYCQQNNEDPLTFGAGTKLEIK
[1]
  koff: 0.00028 s⁻¹
  kon: 14000 M⁻¹ s⁻¹
[2]
  Kd: 1.9 nM

B2: WTFc (wild-type FN3 fused to rabbit IgG constant region CH2/CH3, His6 tag) (Fc fusion)
chain (part 1 of 2): AVSDVPRKLEVVAATPTSLLISWDAPIKRRLYYRITYGETGGNSPVQEFTVPGSKSTATISGLKPGVDYTITVYAVTYPAPYSKPISINYR
chain (part 2 of 2): HHHHHH
notes: Control fusion protein; also called wild-type FN3 fusion protein; not shown: rabbit IgG constant region, CH2/CH3 (Cγ2-Cγ3) domains
[3]
  binding result: no binding
[4]
  binding result: no binding
[5]
  binding result: no binding (tested: 40 µg/ml)
